In article PMC8974011:

Molecular target: T1, endogenous STAT1 of HeLa cells (human (endogenous in HeLa)), P42224
T1 chain: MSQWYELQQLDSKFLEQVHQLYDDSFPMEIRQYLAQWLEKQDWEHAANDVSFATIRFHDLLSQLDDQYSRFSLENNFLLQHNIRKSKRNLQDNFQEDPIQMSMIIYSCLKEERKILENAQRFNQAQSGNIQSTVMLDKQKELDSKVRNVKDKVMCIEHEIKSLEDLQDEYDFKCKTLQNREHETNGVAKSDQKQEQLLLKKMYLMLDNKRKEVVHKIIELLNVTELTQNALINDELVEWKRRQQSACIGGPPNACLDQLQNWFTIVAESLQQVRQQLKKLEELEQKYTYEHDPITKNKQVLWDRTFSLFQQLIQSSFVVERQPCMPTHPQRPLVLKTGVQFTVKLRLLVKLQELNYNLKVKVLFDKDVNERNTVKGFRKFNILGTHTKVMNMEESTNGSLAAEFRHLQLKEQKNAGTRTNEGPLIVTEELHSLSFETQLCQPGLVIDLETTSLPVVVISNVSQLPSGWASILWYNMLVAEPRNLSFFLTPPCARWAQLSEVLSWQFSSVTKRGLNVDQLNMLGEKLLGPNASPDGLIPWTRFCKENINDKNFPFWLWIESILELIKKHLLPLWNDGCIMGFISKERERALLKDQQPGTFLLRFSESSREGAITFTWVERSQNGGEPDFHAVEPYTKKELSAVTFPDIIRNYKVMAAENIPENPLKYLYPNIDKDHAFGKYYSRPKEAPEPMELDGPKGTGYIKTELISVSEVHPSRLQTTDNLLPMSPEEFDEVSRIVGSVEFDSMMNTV
Assay: native gel or EMSA; extracts of IFNγ-stimulated HeLa cells incubated with [33P]-labelled 2xGAS duplex DNA (two tandem GAS sites); super-shift with STAT1 antibody; competition with 750-fold molar excess of unlabelled M67 DNA; 4.8% acrylamide gel at 4 °C; only DNA-bound complexes are seen
Conditions: remark: other sources report otherwise

stoichiometry N: 4
B1: endogenous STAT1 of HeLa cells, P42224 1-750 (natural protein)
chain: T1 chain
modifications: here or on the partner: phospho-tyrosine 701 (P-STAT1, IFNγ-stimulated cells); phospho-tyrosine 701 (P-STAT1, IFNγ-stimulated cells)
